{"source": "paper PMC9371925", "about": "(Nucleic Acids Research, 2022)", "key": {"[1]": {"biological_target": "Streptomyces coelicolor zinc uptake regulator (ScZur) (Streptomyces coelicolor M145)", "test": "cryo-EM structure"}, "cryo-EM structure": {"biological_target": "the molecule itself", "test": "cryo-EM structure"}, "ScZur [2]": {"biological_target": "T1, ScZur (Streptomyces coelicolor M145, UniProt Q9L2H5 1-139)", "T1 sequence": "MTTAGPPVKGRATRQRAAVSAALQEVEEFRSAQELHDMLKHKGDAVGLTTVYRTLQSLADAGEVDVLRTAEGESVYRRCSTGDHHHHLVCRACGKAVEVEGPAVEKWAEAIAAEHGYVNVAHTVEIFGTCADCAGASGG", "test": "EMSA"}, "ScZur [3]": {"biological_target": "T1, ScZur", "test": "EMSA", "remark": "listed apart in the source"}}, "note": "Values joined by “and” are separate entries in the source; they are usually repeats but may differ in a detail not shown here. Equal entries are not always repeated. Where two headings read alike, the source gives them in different places."}
{"molecule": "Streptomyces coelicolor zinc uptake regulator (ScZur) (natural protein)", "values": [{"measurement": "stoichiometry N", "setting": "[1]", "result": "6 and 4"}]}
{"molecule": "Streptomyces coelicolor RNA polymerase α subunit (natural protein, Streptomyces coelicolor M145) MLIAQRPSLTEEVVDEFRSRFVIEPLEPGFGYTLGNSLRRTLLSSIPGAAVTSIRIDGVLHEFTTVPGVKEDVTDLILNIKQLVVSSEHDEPVVMYLRKQGPGLVTAADIAPPAGVEVHNPDLVLATLNGKGKLEMELTVERGRGYVSAVQNKQVGQEIGRIPVDSIYSPVLKVTYKVEATRVEQRTDFDKLIVDVETKQAMRPRDAMASAGKTLVELFGLARELNIDAEGIDMGPSPTDAALAADLALPIEELELTVRSYNCLKREGIHSVGELVARSEADLLDIRNFGAKSIDEVKAKLAGMGLALKDSPPGFDPTAAADAFGADDDADAGFVETEQY", "values": [{"measurement": "binding result", "setting": "cryo-EM structure", "result": "binds"}]}
{"molecule": "zitB Zur-box 33 bp (-68 to -36) (dsDNA) DNA 1: CAAGGCACATGACAACGGTGTTCAGTGCCGCGT DNA 2: ACGCGGCACTGAACACCGTTGTCATGTGCCTTG", "values": [{"measurement": "Kd", "setting": "ScZur [2]", "result": "34 ± 0.7", "unit": "nM"}]}
{"molecule": "M2 33 bp (dsDNA) DNA 1: CAAGGCACATCACAACTGTGTTGAGTGCCGCGT DNA 2: ACGCGGCACTCAACACAGTTGTGATGTGCCTTG", "values": [{"measurement": "Kd", "setting": "ScZur [3]", "result": "223 ± 30.5", "unit": "nM"}]}
